Results on 2 substances are retold here after US20030129296A1.

Assay [1] concerns the target mouse IgG labeled with Alexa Fluor 488 (Molecular Probes, Inc., A-11243 anti-biotin, mouse monoclonal 2F5, Alexa Fluor 488 conjugate) (mouse). As to the kind of experiment: net median particle fluorescence divided by that of the blank (0 nM) particles; labeled target at 1 nM, 2 h.
Assay [2] has the same target. As to the kind of experiment: net median particle fluorescence divided by that of the blank (0 nM) particles; labeled target at 10 nM, 2 h.
Assay [3] shares this target. As to the kind of experiment: ratio of particle fluorescence to film background fluorescence; labeled target at 100 nM, 2 h.
Assay [4] has the same target. As to the kind of experiment: net median particle fluorescence divided by that of the blank (0 nM) particles; labeled target at 100 nM, 2 h.
Assay [5] has the same target. The assay is described as follows: fluorescence imaging of film-immobilized capture particles, film background subtracted; labeled target at 100 nM, 2 h.
The target is the same in assay [6]. As to the kind of experiment: ratio of particle fluorescence to film background fluorescence; labeled target at 1 nM, 2 h.
Assay [7] shares this target. As to the kind of experiment: fluorescence imaging of film-immobilized capture particles, film background subtracted; labeled target at 10 nM, 2 h.
The target is the same in assay [8]. The assay is described as follows: fluorescence imaging of film-immobilized capture particles, film background subtracted; labeled target at 1 nM, 2 h.
Assay [9] has the same target. The assay is described as follows: fluorescence imaging of film-immobilized capture particles; labeled target at 10 nM, 2 h.
The target is the same in assay [10]. The assay is described as follows: ratio of particle fluorescence to film background fluorescence; labeled target at 10 nM, 2 h.
Assay [11] shares this target. As to the kind of experiment: fluorescence imaging of film-immobilized capture particles; labeled target at 100 nM, 2 h.
The target is the same in assay [12]. As to the kind of experiment: fluorescence imaging of film-immobilized capture particles; labeled target at 1 nM, 2 h.
The target of assay [13] is Cy3-labeled mouse monoclonal antibody (Amersham) (mouse). The assay is described as follows: fluorescence imaging of 0.8 µm capture particles on epoxy-hydrogel slides; dilution series of the Cy3-labeled target, overnight incubation.

As for “goat anti-mouse IgG(Fc) coated particles, 3.2 µm in diameter (Spherotech, Inc., MPFc-30-5) (antibody)”, the results for the MPF/MPF0 in assay [1], in assay [2] and in [4] were 58.2, 99.5 and 107, respectively. The values for the MPF/FBF in assay [3], in [6] and in [10] were 6.41, 5.97 and 7.45, respectively. In addition, the Net Median Particle Fluorescence, MPF in assay [5] is 43 cps; in [7] it was 40 cps; in assay [8], 23 cps. The Particle Fluorescence Rate, Average in [9] was found to be 44.5 cps; in [11], 50.7 cps; in assay [12] it was 29.6 cps. Besides, the Particle Fluorescence Rate, Maximum in assay [9] amounted to 66.2 cps; in [11] it was 74.1 cps; in [12] it was 62.6 cps. Moreover, the Particle Fluorescence Rate, Median was determined as 46.4 cps in assay [9], 50.8 cps in [11] and 28.1 cps in assay [12]. Besides, the values for the Particle Fluorescence Rate, Minimum in assay [9], in [11] and in assay [12] were 12 cps, 34.1 cps and 14.8 cps, respectively.
“0.8-µm-diameter particles coated with goat-anti-mouse antibody” came in with a detection level in assay [13] of 1 pM.
